In the DeepSol protein solubility set:

assay: soluble on expression in E. coli; label from the status in PepcDB or PDB records

Sequence | soluble on expression in E. coli
IQRQMFPNIEVNYIDVRATYPGASPQEIEESILVKVEESIKDVTGIKKVVSRASRGSAYISIEVDVNADIKRVLDDVNQRIDTISNLPLGMEPINVYQVEWRQDVIEMGLVGDRPLEELKPIAKQIEDELLQLNNVMLVYLSAPEEEIAIEVDPLVLRKYDLTLNDVSNAIRRYSANFSAGEVKTNSGMIAVRIENQYYRGDEFRNIPVKLGANGAKVLLQDIATIKDGFTEEERYFEYSGQNAIYMSVEATRDQNIIPVAQSVRDYIEAKNKTLPSDVQLKILVDMTYYLNGRLDMMLK | not soluble
GSRRASVGSMSKKPPNRPGITFEIGARLEALDYLQKWYPSRIEKIDYEEGKMLVHFERWSHRYDEWIYWDSNRLRPLERPALR | soluble
MQFDNIDSALMALKNGETIIVVDDENRENEGDLVAVTEWMNDNTINFMAKEARGLICAPVSKDIAQRLDLVQMVDDNSDIFGTQFTVSIDHVDTTTGISAYERTLTAKKLIDPSSEAKDFNRPGHLFPLVAQDKGVLARNGHTEAAVDLAKLTGAKPAGVICEIMNDDGTMAKGQDLQKFKEKHQLKMITIDDLIEYRKKLEPEIEFKAKVKMPTDFGTFDMYGFKATYTDEEIVVLTKGAIRQHENVRLHSACLTGDIFHSQRCDCGAQLESSMKYINEHGGMIIYLPQEGRGIGLLNKLRAYELIEQGYDTVTANLALGFDEDLRDYHIAAQILKYFNIEHINLLSNNPSKFEGLKQYGIDIAERIEVIVPETVHNHDYMETKKIKMGHLIMAGDPLEHHHHHH | not soluble
MGSDKIHHHHHHMKIPKRLQPLVDDGLIDDVLQRLKSGKEADVYTVLCGDKIQCAKVYKEAMQRSFKQAVQYQEGRKVRNTRNARAMQKSSKFGRKQQEESWQTAEVEALFRLANAGVRVPQPYICIDGVLLMELVTDVDGAVAPRLSDVILTEESAIADFDTMIRNIVRMLCVGIVHGDLSEFNVLIDAQGPVIIDLPQAVDAAANNHAESMFARDVNNITAYYGQFAPQLLQTRYAQEIWMLYEDGKLTPETALTGLFVEAVHEVDMGSLIDEIIAAEDEFYERQRAKKERDDE | not soluble
MKVKSISRFFSMKKVTLSFVTLFIGVGTIGSYNQYADASMKTQQTHVTKSSPTQKTTSNFKRSVKDTSVKSRATSIKRATSTKQAISPKTSSTKKTTIAKKSTTVNKTRTTTKTQPTIRKSSTTSTRSKTMPTSVKRTTSHKATTVSPTSKAKISTKTQQSTKSHTTSVKKNTTQLSKTKSPSTSTKSKTVQSSTTKAQPTLSTQVSTTTKAKQFSTPTTSKTDSSKSLVSLASTERKIDKYQSMTQLEKETTEGVDWRKDTKNTGNQVLIVAPHGGSIEQGTTELTKALADKGNYDYYSFEGIRPKNNSELHVTSTHYDDPTLNQMIKNRTATISIHGASGSEEIIYLGGPRSDLRNAIEKQLVARGFTVKVPPEYLGGQNNKNFINREDNNTGVQLELTTALRKAFFKNGDTSTKNRTNKENWTPTMEEFINALYEGINQTYSLEHHHHHH | not soluble
GPGSMPAKKKEVKVDEPLFVDEEGSYVHEAEGARYKGGVRRYAPPGGTDAGGTAAPPAKNSRSRSTSSPGKGGATPPPSAAAGAAASMAVVSDAPVFRHGRGVYTCPSFTYAGDWVEDEMHGSGQLTFVESGNIYEGEFSHGCFSGQGTYQWRDGALYCGQWRSNRMHGEGIYTDVQGHVWKGRYYNGTGPGLIRLYPTLERVDDAGPSSPGPDATNAAATVANS | soluble
MGKTSRDKRDIYYRLAKENKWRARSAFKLMQIDDEFQILKGVRRAVDLCAAPGSWSQVLSKRLYEEDQEAKIVAIDLQPMAPIPGVIQLQGDITSVDTANQVIKHFSGEKSDIVICDGAPDVTGIHSLDEFMQAELILAAFNITSHVLKEGGNFLAKIFRSRNSSLLYAQMKKYFKKVYLAKPRSSRQSSCEAFVLCLDYSPPEGFVPTMGKTSLDATDASAISPDIIDGFVTCGDLSGWDSEKSYPLDIDACFPKGEIDEEQKKRYEFKDVVQPPTDPAYKAALDKKKSGVFAKMSADLNRQLKAELSRGKDQKKTPAENVPSVEELEKAAEKFQL | not soluble
MAGFAVNLKVVLNSDAVFGTACKRGGGAPETCLLEDMGLEREDIEPFGYEKDKDREILVWHTKTSTPNIVKSNKNSTKKAPPPDTFGYFVEA | not soluble
MSLKSYILLIKCKTDTTIRTKSKKFLIRKGVYAYVGSCGRSCGRRVSRHFNKEKSNYHWHIDYLTKACEPIGVFVMNHVGEKELALLFSKNNAFIEEFGSSDDKDAKSHLFIVNDLQELCSTVCDKSREREGHHHHHH | soluble
MTARPYEPPPDYPMIEQRWPTTVRNSSIHPHVSSAHPSYRSHSIDAAVNRSSSACFHSPHRPSFPSRGLQKYDYPICGVSPSRHLSYNHFYNQSAAEIEEMLRTRQFPEIAGIYGNDEQPSLRRFTRYNQSINSRAVPPPAPPNPPKMEKHMSHDTSGRGSIFSKSSKKPLFFMGNWTFRDRNKSARPSISEALREERPQSMNLSDIKPATRSKSGEVLGPRNHIHIESITEFPRNIETRVPVKIERSSMVRRKPSNMGGSTEVSITSSSPSPSSSSSTSTGEFKTTITVDDDHQPTAVMRPKKESDTRGTLNNNRYSFQSCVQLRKSCPDLDSTAMSNMEQHRVSKKRTRRAKEKMSQAAWKRKTVKEWSLDDVLLWLQSAQMDDVAGLLIGYDLRGEDLLQWNDQTLAQLGVSNPEIRKKLLDDLSKIIENGPEPAQEDIRNNHRTLFDIVKQTSYDQVLAVETPLTTRDITVTHGRLGCLQITKVNGANLPLKEHDCLLEINERAGEQFKSALMLTKLISDSNGAAIRFVVLRRKTNLVVEESQQKESSSSGISSSPQTPTE | not soluble
MGSDKIHHHHHHMWFKNLMTYRLTKPLDWDLAQLQTQLEDCQFHPCGTQDQSKFGWSAPLRGSDLLYFSVGKQILLIAKKEEKILPANVVKRELDDRIESLEQKENRKLKKVEKQTLKDDVVMNLLPRAFSKNQHTALWIDTENNLIHIDAASSKRAEDALALLRKSLGSLPVVPLAFANEPSTILTNWILQDNLPHWLLALEEAELRGSQEDSVIRCKKQPLENEEILALLQDGKKVVSKLALEWEDTLTFVFNEDCTIKRLKFADTVREKNDDILKEDFAQRFDADFVLMTGILAKLTENLLDEFGGEKARL | not soluble
MGSDKIHHHHHHENLYFQGMKQIPQDFRLIEDFFRTRRSVRKFIDRPVEEEKLMAILEAGRIAPSAHNYQPWHFLVVREEEGRKRLAPCSQQPWFPGAPIYIITLGDHQRAWKRGAGDSVDIDTSIAMTYMMLEAHSLGLGCTWVCAFDQALCSEIFDIPSHMTPVSILALGYGDPTVPPREAFNRKTIEEVVSFEKL | soluble
MDEDVLPGEVLAIEGIFMACGLNEPEYLYHPLLSPIKLYITGLMRDKESLFEAMLANVRFHSTTGIDQLGLSMLQVSGDGNMNWGRALAILTFGSFVAQKLSNEPHLRDFALAVLPAYAYEAIGPQWFRARGGWRGLKAYCTQVLTDDDDLEHHHHHH | soluble
MNPLAQKLNDEIKQSSPEVLDMMSQLGKDMFYPKGILSQSAEAKRTTYNATIGMATKKEGKMYANSLNQMFNDLTPDEIFPYAPPQGVEELRDLWQKKMLKENPDLKSKSISRPIVTNALTHGLSLVADLFVDTDDTVLLPTHNWGNYKLVFSTRHGAHIDTYSIFDNSGHFTTSELVKTLKEYKKDKVIIILNYPNNPTGYTPNKEEVNTIVNAIEELANKGTKVVTVVDDAYYGLFYEEVYQQSIFTALTQVKSSNLLPVRLDGATKEFFSWGFRVGFMTFGIDHETLKNALEAKVKGLIRSNISSSPLPSQSAIKHVLKHHEQFDKEIDQNINILKERYEVTKQVVYDNKYAKYWQAYDFNSGYFMSLKLNQVDPEELREHLINNYSIGIIALNSTDIRIAFSCVEKEDIPYVFESIANAIDDIK | not soluble
AVLDLDVRTCLPCGPGGKGRCFGPSICCGDELGCFVGTAEALRCQEENYLPSPCQSGQKPCGSGGRCAAAGICCSPDGCEEDPACDPEAAFS | soluble
MAEFASAEFDRMLAEARSMLDAMRSGRSAPSDEEEVKGVGEAADGRVTVTVNSSGLLESVELNPRLLRLPAEEIGEHIVTAVNAALQDFRTKANQAVGAASVDLNALAASMQELQDQSVRQMAQIGQAFNELLTKLDGMR | not soluble
